Positions count from the first letter of the chain named.
T1: mouse VEGF (mouse, UniProt Q00731-2 27-190)
T1 construct: Bought recombinant protein; also called mVEGF-A; mouse VEGF-A
T1 sequence (looked up): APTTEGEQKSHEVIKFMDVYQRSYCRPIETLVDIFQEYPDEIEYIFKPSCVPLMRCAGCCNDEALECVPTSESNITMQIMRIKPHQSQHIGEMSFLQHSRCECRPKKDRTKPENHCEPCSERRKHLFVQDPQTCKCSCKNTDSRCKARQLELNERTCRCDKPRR

T2: human placental growth factor (human, UniProt P49763-2 21-149, limits assumed)
T2 construct: also called PlGF; PIGF
T2 sequence (looked up): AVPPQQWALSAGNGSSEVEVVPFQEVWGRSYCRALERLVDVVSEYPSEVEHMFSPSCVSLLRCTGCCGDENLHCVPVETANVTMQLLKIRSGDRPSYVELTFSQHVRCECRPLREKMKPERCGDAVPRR

T3: human VEGF-B (human, UniProt P49765-2 22-188, limits assumed)
T3 construct: also called hVEGF-B
T3 sequence (looked up): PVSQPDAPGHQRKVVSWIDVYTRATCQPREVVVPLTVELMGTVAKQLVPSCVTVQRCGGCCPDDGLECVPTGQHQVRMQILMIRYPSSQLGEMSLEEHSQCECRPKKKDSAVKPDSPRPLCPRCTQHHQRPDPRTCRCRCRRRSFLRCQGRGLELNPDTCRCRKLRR

T4: human VEGF-C (human, UniProt P49767 103-227, limits assumed)
T4 construct: also called hVEGF-C
T4 sequence (looked up): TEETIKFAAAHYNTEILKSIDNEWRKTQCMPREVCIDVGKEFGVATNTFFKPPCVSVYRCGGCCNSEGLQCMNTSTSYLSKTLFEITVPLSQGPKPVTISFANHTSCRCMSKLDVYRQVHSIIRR

T5: human VEGF-D (human, UniProt O43915 93-201, limits assumed)
T5 construct: also called hVEGF-D
T5 sequence (looked up): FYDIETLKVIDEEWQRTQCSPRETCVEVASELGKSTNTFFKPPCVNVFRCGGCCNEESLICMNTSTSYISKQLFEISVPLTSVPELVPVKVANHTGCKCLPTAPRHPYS

B1: HF2-5 (antibody, V domains shown)
VH: EVQLVESGGGLVQPGGSLRLSCAASGFMIRSHGMQWVRQAPGKGLEYVAGISSDGSWARHSAAVEGRFTISRDDSKNTAYLQMNSLRAEDTAVYYCARDFSTGYGADSIDAWGQGTLVTVSS
VL: DIQMTQSPSSLSASVGDRVTITCSGGSDSAYGYGWYQQKPGKAPKTLIYWDDKRPSGVPSRFSGSRSGTDFTLTISSLQPEDFATYYCGAWEYSGGVGIFGQGTKVEIK
notes: also called HF-5
B2: HF2-4 (antibody, V domains shown)
VH: B1 VH with F27W, M28S, I29M, A58R
VL: B1 VL
notes: also called HF-4
B3: HF2-8 (antibody, V domains shown)
VH: B1 VH with M28H, A58L, R59K, H60L
VL: B1 VL with D28T, S29Y, A30S, Y31L
notes: also called HF-8
B4: HF2-9 (antibody, V domains shown)
VH: B1 VH with G26M, M28R, A58F, H60V, S61A
VL: B1 VL with D28M, S29E, A30P, Y31L
notes: also called HF-9
B5: HF2-1 (antibody, V domains shown)
VH: B1 VH with G26N, M28V, I29F, A58T, R59G, H60Y, S61G
VL: B1 VL
notes: also called HF-1
B6: HF2-11 (antibody, V domains shown)
VH: B1 VH with M28L, A58V, R59K, H60V, S61A
VL: B1 VL with D28S, S29E, A30P, Y31L
notes: also called HF-11; clone HF2-11
B7: clone F (antibody, V domains shown)
VH: AVTLHESGGGLQTPGGALSLVCKASGFTFSSHGMQWVRQAPGKGLEYVAGISSDGSWTGYGAAVKGRATISRDNGQSTVRLQLNNLRAEDTATYYCARDFSTSYGADSIDAWGHGTEVIVSS
VL: LTQPSSVSANPGETVKITCSGGSNSAYGYGWYQQKSPGSAPVTLIYWDDKRPSDIPSRFSGSASGSTATLTITGVRAEDEAVYFCGAWEYSSDVGIFGAGTTLTVL
notes: Clone from an immunized chicken scFv phage library; also called mother clone F; F clone
B8: HF2-19 (antibody, V domains shown)
VH: B1 VH with M28S, I29T, A58K, R59A, H60T, S61A
VL: B1 VL
B9: HF2-25 (antibody, V domains shown)
VH: B1 VH with G26Y, F27M, M28E, I29Y, A58F, H60M, S61N
VL: B1 VL with D28N, S29F, A30P, Y31M
B10: HF2-26 (antibody, V domains shown)
VH: B1 VH with G26R, M28N, I29M, A58I, H60V, S61Q
VL: B1 VL with S24T, G25A, G26P, S27A

target: T6, human VEGF (human, UniProt P15692-4 27-191); assay: ELISA, human VEGF coated, anti-human Fc-HRP, absorbance 450 nm [c]
T6 construct: Bought recombinant protein; also called hVEGF; human VEGF-A
Method: (§1) 1.5 ng of human VEGF diluted in 150 μL of buffer solution was placed in 96-well immune plate (Nunc, USA), and adsorbed at 4° C. overnight, followed by washing 3 times with a buffer solution containing 0.1% Tween 20. Then, they were reacted with a buffer solution including 1% bovine serum albumin (Sigma, USA) for 1 hr at room temperature, and washed 3 times. Then each well was treated with 150 μL of serially diluted antibody (1 ng/mL, 10 ng/mL, 30 ng/mL, 100 ng/mL, 1000 ng/mL and 3000 ng/mL) They were allowed to react for 1 hr at room temperature so that antigens may bind to antibodies, followed by washing 3 times with a buffer solution.
(§2) Each well was treated at 150 μL per well with anti-human immunoglobulin Fc-HRP antibody (AbSerotec, USA) diluted 1:20000 and allowed to react for 1 hr at room temperature. After the reaction was completed, washing was performed 3 times with a buffer solution, followed by addition of 150 μL of TMB (Sigma, USA) and color development for 10 min. The reaction was terminated with 1N sulfuric acid solution, and absorbance was measured at 450 nm using a spectrophotometer (Molecular Device, USA).

| Binder | EC50 (read off the curve) [µg/mL] |
| --- | --- |
| B1 | ~0.02 |
| B2 | ~0.02 |
| B3 | ~0.02 |

target: T6, human VEGF; assay: SPR (BIAcore X100), VEGF on CM5 chip, IgG injected, 1:1 Langmuir
Excerpt: Meanwhile, to measure the affinity, human VEGF and mouse VEGF were coupled to carboxymethylated dextran biosensor chips (CM5, GE) according to the manufacturer's instructions.
The association and dissociation rates were expressed by the association and dissociation sensorgram, and calculated using a simple 1:1 Langmuir binding model (BIAcore X100 evaluation software, ver. 2.0).
Target sequence in this assay (P15692 other isoform, or with tags, fused parts or gaps limits assumed): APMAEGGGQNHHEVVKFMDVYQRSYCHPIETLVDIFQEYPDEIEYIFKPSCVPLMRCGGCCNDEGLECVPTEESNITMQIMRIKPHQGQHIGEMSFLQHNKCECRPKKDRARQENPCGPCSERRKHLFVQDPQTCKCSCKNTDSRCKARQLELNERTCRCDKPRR

| Binder | Kd [nM] | koff [s⁻¹] | kon [M⁻¹ s⁻¹] |
| --- | --- | --- | --- |
| B1 | 0.019 | 2.6e-05 | 1.3e+06 |
| B4 | 0.018 | 3.2e-05 | 1.7e+06 |
| B5 | < 0.001 | < 1e-06 | 2.5e+06 |
| B2 | 0.0019 | 3.1e-06 | 1.6e+06 |
| B3 | 0.036 | 5.7e-05 | 1.5e+06 |
| B6 | 0.0047 | 6.8e-06 | 1.4e+06 |

target: T6, human VEGF; assay: ELISA, human VEGF coated, anti-human Fc-HRP, absorbance 450 nm [a]
Method: as §1, §2

| Binder | binding result |
| --- | --- |
| B7 | binds |

target: T1, mouse VEGF; assay: ELISA and BIAcore

| Binder | fold affinity over mother clone F [times] |
| --- | --- |
| B1 | ≥ 10 |
| B4 | ≥ 10 |
| B5 | ≥ 10 |
| B2 | ≥ 10 |
| B3 | ≥ 10 |
| B6 | ≥ 10 |
| B8 | ≥ 10 |
| B9 | ≥ 10 |
| B10 | ≥ 10 |

target: T6, human VEGF; assay: ELISA and BIAcore

| Binder | fold affinity over mother clone F [times] |
| --- | --- |
| B1 | ≥ 10 |
| B4 | ≥ 10 |
| B5 | ≥ 10 |
| B2 | ≥ 10 |
| B3 | ≥ 10 |
| B6 | ≥ 10 |
| B8 | ≥ 10 |
| B9 | ≥ 10 |
| B10 | ≥ 10 |

target: T1, mouse VEGF; assay: ELISA, mouse VEGF coated, anti-human Fc-HRP, absorbance 450 nm [a]

| Binder | EC50 (read off the curve) [µg/mL] |
| --- | --- |
| B1 | ~0.06 |
| B4 | ~0.05 |
| B5 | ~0.08 |
| B6 | ~0.05 |

target: T6, human VEGF; assay: ELISA, human VEGF coated, absorbance 650 nm [g]

| Binder | EC50 (read off the curve) [nM] |
| --- | --- |
| B8 | ~0.1 |
| B9 | ~0.2 |
| B10 | ~0.3 |

target: T1, mouse VEGF; assay: ELISA, 0.2 µg/ml VEGF coated, scFv or IgG serially diluted
Method: ELISA plates were coated with 0.2 μg/ml of human VEGF and mouse VEGF (R&D systems, USA) respectively, and the purified proteins obtained in Example 5 in the form of scFv expressed by HB2151 or IgG expressed by 293F cells were incubated at serially diluted concentrations.

| Binder | binding result |
| --- | --- |
| B7 | binds |

target: T6, human VEGF; assay: competition ELISA: human VEGF coated, 9 nM KDR ECD IgG-Fc (VEGFR2) added together with the antibody, bound receptor-Fc detected, absorbance 405 nm
Method: 0.5 μg/ml of human VEGF was coated to 96-well ELISA plate and blocked with PBS solution containing 3% BSA and 0.05% Tween 20.

| Binder | IC50 (read off the curve) [nM] |
| --- | --- |
| B1 | ~5 |
| B4 | ~5 |
| B5 | ~5 |
| B6 | ~5 |

target: T6, human VEGF; assay: ELISA, human VEGF coated, anti-human Fc-HRP, absorbance 450 nm [b]
Method: as §1, §2

| Binder | EC50 (read off the curve) [µg/mL] |
| --- | --- |
| B1 | ~0.04 |
| B4 | ~0.04 |
| B6 | ~0.04 |

target: T2, human placental growth factor; assay: ELISA, 0.2 ug/ml protein coated, anti-human IgG-Fab-HRP, absorbance 650 nm; antibody concentration not shown
Method: (§3) 0.2 μg/ml each of the respective proteins (hVEGF-A, mVEGF-A, hVEGF-B, hVEGF-C, hVEGF-D and PlGF) (R&D systems) were coated to the wells of ELISA plate, respectively. After blocking them with PBS containing 3% BSA and 0.05% Tween 20 for 30 min at 37° C., antibody clone proteins of increasing concentrations were incubated at 37° C. for 2 hr. Then, the wells were washed with PBS containing 3% BSA and 0.05% Tween 20 for 3 times, and anti-human IgG-Fab-HRP conjugate (Jackson Immunoresearch, USA) was added thereto and incubated for 1 hr at room temperature. Then they were washed with PBS containing 3% BSA and 0.05% Tween 20 for 3 times, and developed using TMB, and absorbance was measured at 650 nm.

| Binder | binding result |
| --- | --- |
| B1 | no binding |
| B4 | no binding |
| B5 | no binding |
| B6 | no binding |

target: T3, human VEGF-B; assay: as above
Method: as §3

| Binder | binding result |
| --- | --- |
| B1 | no binding |
| B4 | no binding |
| B5 | no binding |
| B6 | no binding |

target: T4, human VEGF-C; assay: as above
Method: as §3

| Binder | binding result |
| --- | --- |
| B1 | no binding |
| B4 | no binding |
| B5 | no binding |
| B6 | no binding |

target: T5, human VEGF-D; assay: as above
Method: as §3

| Binder | binding result |
| --- | --- |
| B1 | no binding |
| B4 | no binding |
| B5 | no binding |
| B6 | no binding |

From patent US20160122426A1 (DONG A SOCIO, published 2016)
